In patent publication US20160015828A1 (AbbVie / Abbott, published 2016):

T1: human DLL3 (UniProt Q9NYJ7 27-492)
T1 chain: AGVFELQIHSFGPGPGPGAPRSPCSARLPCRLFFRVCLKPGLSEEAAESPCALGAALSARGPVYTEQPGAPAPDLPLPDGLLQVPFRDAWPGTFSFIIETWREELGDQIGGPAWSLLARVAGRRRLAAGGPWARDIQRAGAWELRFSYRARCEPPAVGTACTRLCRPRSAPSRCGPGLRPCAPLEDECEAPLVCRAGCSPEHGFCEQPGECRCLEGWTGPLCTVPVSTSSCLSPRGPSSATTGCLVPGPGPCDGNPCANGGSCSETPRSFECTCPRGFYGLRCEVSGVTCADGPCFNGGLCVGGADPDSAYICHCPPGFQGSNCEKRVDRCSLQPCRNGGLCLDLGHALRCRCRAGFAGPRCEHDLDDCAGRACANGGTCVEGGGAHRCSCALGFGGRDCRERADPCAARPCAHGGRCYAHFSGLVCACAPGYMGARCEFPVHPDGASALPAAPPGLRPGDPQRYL

T2: human DLL3 over-expressed on 293 cells (human, UniProt Q9NYJ7 27-618)
T2 construct: identical extracellular and transmembrane regions; also called hDLL3; Delta-like ligand 3
T2 sequence: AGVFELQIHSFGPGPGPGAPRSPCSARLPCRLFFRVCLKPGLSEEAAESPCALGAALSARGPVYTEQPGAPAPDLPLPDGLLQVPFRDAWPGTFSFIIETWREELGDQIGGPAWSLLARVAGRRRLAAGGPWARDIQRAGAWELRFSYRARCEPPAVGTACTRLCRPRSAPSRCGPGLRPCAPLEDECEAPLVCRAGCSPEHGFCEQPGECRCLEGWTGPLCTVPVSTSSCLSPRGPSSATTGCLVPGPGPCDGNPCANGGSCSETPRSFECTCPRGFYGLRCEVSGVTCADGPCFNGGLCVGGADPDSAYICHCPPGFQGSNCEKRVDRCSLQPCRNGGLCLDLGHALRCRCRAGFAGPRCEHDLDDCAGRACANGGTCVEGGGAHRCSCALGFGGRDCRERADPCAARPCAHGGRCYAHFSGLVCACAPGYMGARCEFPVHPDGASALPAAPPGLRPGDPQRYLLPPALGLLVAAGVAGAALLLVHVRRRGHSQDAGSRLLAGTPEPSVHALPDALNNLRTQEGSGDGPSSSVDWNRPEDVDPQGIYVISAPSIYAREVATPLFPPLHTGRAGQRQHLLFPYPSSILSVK

T3: rat DLL3 over-expressed on 293 cells (rat, UniProt O88671 33-589)
T3 construct: whole, on cells
T3 sequence (looked up): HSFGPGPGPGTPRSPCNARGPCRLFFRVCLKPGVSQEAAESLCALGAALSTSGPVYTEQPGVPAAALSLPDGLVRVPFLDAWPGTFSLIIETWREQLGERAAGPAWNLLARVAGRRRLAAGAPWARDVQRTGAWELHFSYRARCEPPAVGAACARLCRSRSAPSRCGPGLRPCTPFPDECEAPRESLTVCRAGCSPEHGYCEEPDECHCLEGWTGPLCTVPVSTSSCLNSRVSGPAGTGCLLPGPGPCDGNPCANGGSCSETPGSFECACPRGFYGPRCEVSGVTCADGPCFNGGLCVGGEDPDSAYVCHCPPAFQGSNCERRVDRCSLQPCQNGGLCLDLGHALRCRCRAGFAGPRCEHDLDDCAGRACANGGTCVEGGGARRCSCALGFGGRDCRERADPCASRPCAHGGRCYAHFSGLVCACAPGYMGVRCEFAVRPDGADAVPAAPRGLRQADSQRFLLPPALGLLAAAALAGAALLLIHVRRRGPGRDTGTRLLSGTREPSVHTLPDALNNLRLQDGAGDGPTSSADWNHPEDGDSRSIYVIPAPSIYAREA

B1: SC16.67 (antibody, V domains shown)
VH: EVQLVETGGGLVQPKGSLKLSCAVSAFTFTTYAMNWVRQAPGKGLEWVARIRNKSNNYATYYADSVKDRFTISRDDSQSMLYLQMNNLKIEDTAMYYCVFYYDYVYWGQGTLVTVSA
VL: QAVVTQESALTTSPGETVTLTCRSSTGAVTTSNYANWIQEKPDHLFTGLIGGTNNRAPGVPARFSGSLIGDKAALTITGAQTEDEAIYFCGLWYSNHLVFGGGTKLTVL
B2: SC16.65 (antibody, V domains shown)
VH: QVTLKESGPGILQPSQTLSLTCSFSGFSLSTSGMGVGWIRQPSGKGLEWLALIWWDDVKRYNPALKSRLTISKDASSSQVFLKIASVDTADTATYYCARIASYDYDVVYAMDYWGQGTSVSVSS
VL: QIVLTQSPALMSASPGEKVTMTCSVTSSVSYMYWYQQKPRSSPKPWIYLTSNLASGVPARFSGSGSGTSYSLTISSVEAEDAATYYCQQWRNNPFTFGSGTKVEIK
notes: murine mAb; V regions only
B3: SC16.4 (antibody, V domains shown)
VH: QIQLVQSGPELKKPGETVKISCKASGYTFTDYSMHWVKQAPGKGLKWMGWINTETGEPGYADDFKGRFAFSLETSASTAYLQINNLKNEDTATYFCARYDGYAMDYWGQGTSVTVSS
VL: DIQMTQTTSSLSASLGDRVTISCRASQDISNYLNWYQQKPDGTVKLLIYYTSRLHSGVPSRFSGSGSGTDYSLTISNLELEDIATYFCQQGDMLPWTFGGGTKLEIK
notes: murine mAb; V regions only
B4: SC16.39 (antibody, V domains shown)
VH: EVKLEESGGGLVQFGGSMKLSCAASGFTFSDAWMDWVRQSPEKGLEWVAEIRNKANNHATYYPESVKGRFTISRDDSKSRVYLQMNNLRAEDTGIYYCTGYSSFAYWGQGTLVTVSA
VL: DIQMTQTTSSLSASLGDRVTISCRASQDVINYLNWYQQKPDGTVKLLIYYTSRLHSGVPSRFSGSGSRTDYSLTISNLEPEDIATYYCQQYSERPYTFGGGTKLEIK
B5: SC16.13 (antibody, V domains shown)
VH: QVTLKESGPGILQPSQTLSLTCSFSGFSLSTSGMGVGWIRQPSGKGLEWLAHIWWDDVKRYNPALKSRLTISKDTSSSQVFLKIASVDTADTATYYCARIVSFDNDVVSAMDYWGQGTSVTVSS
VL: QIVLTQSPALVSASPGEKVTMTCSASSSVSYMYWYQQKPRSSPKPWIYLTSNLASGVPARFSGSGSGTSYSLTISSMEAEDAATYYCQQWRSNPFTFGSGTKLEIK
B6: SC16.8 (antibody, V domains shown)
VH: QAQLQQSGAELVRPGTSVKVSCKASGYAFTNYLIEWVKQRPGQGLEWIGVINPGTGGTNYNENFKGKATLTADKSSSTAYMQLSSLTSDDSAVYFCARSPYDYHEGAMDYWGQGTSVTVSS
VL: EIQMTQSPSSMSASLGDRITITCQATQDIVKNLNWYQQKPGKPPSFLIYYAIELAEGVPSRFSGSGSGSDYSLTISNLESEDFADYYCLQFYEFPFTFGAGTKLELK
notes: murine mAb; V regions only
B7: SC16.15 (antibody, V domains shown)
VH: QVQLQQSGAELAKPGASVKMSCKASGYTFTRYWIHWIKQRPGQGLEWIGYINPTTVYTEFNQNFKDKATLTADKSSTTASMQLSSLTSEDSAVYYCARGGSNFFDYWGQGTTLTVSS
VL: DIQMTQSPASLAASVGETVAITCRASENIYYNLAWYQQKQGKSPQLLIYTANSLEDGVPSRFSGSGSGTQYSLKINSMQPEDSATYFCKQAYDVPPTFGGGTKLEIK
notes: murine mAb; V regions only
B8: SC16.56 (antibody, V domains shown)
VH: QIQLVQSGPELKKPGETVKISCKASGYTFTNYGMNWVKQAPGKGLKWMAWINTYTGEPTYADDFKGRFAFSLETSASTASLQIINLKNEDTATYFCARIGDSSPSDYWGQGTTLTVSS
VL: SIVMTQTPKFLLVSAGDRVTITCKASQSVSNDVVWYQQKPGQSPKLLIYYASNRYTGVPDRFAGSGYGTDFSFTISTVQAEDLAVYFCQQDYTSPWTFGGGTKLEIR
notes: murine mAb; V regions only
B9: SC16.10 (antibody, V domains shown)
VH: QVTLKESGPGILQSSQTLSLTCSFSGFSLSTSGMGVGWIRQPSGKGLEWLAHIWWDDVKRYNPVLKSRLTISKDTSSSQVFLKIASVDTADTATYYCARLVDDLYYFDYWGQGTTLTVSS
VL: QIVLTQSPAIMSASLGERVTMTCTASSSVSSSYLHWYQQKPGSSPKLWIYSTSNLASGVPTRFSGSGSGTSYSLTISSMEAEDAATYYCHQYHRSPFTFGSGTKLEIK
notes: murine mAb; V regions only
B10: SC16.25 (antibody, V domains shown)
VH: QVTLKESGPGILQPSQTLSLTCSFSGFSLSTSGMGVGWIRQPSGEGLEWLTDIWWDDNKYYNPSLKSRLTISKDTSSNQVFLNITSVDTADTATYYCARRVNYYYDPYYAMDYWGQGTSVTVSS
VL: QIVLTQSPAIMSASPGEKVTMTCSASSSVSYMHWYQQKSGTSPKRWIYDSSKLASGVPARFSGSGSGTSYSLTISSMEAEDAATYYCQQWSSNPLTFGAGTKLELK
notes: murine mAb; V regions only
B11: SC16.34 (antibody, V domains shown)
VH: QIQLVQSGPELKRPGETVKISCKASGYTFTNYGMNWVKQAPGKGLKWMGWINTYTGDPTYADDFKGRFAFSLETSASTAYLQINNLKNEDTATYFCARIGGNSPSDYWGQGTSLTVSS
VL: SIVMTQTPKFLLVSAGDRVTITCKASQSVSNDVAWYQQKPGQSPKLLIYYASNRYSGVPDRFTGSGYGTDFTFTISTVQAEDLAVYFCQQDYSSPWTFGGGTKLEIK
notes: murine mAb; V regions only
B12: SC16.7 (antibody, V domains shown)
VH: EVQLQQSGPELVKPGASVKISCKASGYSFTGYKMHWVKQSHVKSLEWIGRINPYNGATSYNQNFKDKATLTVDKSSSTAYMDLHSLTSEDSAVYFCARGDYRYDWFAYWGQGTLVTVSA
VL: NIMMTQSPSSLAVSAGEKVTMSCKSSQSVLYSSNQKNYLAWYQQKPGQSPKLLIYWASTRESGVPDRFTGSGSGTDFTLTISTVQVEDLAVYYCHQYLSSWTFGGGTKLEIK
notes: murine mAb; V regions only

How the values were obtained:
human DLL3 [1] = biological target: T1, human DLL3; experiment: BLI (ForteBio)
human DLL3 [2] = biological target: T1, human DLL3; experiment: SPR (Biacore)
[3] = biological target: T2, human DLL3 over-expressed on 293 cells; experiment: flow cytometry, 293 cells over-expressing human DLL3
Procedure: (§1) In addition to evaluating the exemplary modulators as set forth above, flow cytometry was performed in order to confirm that selected SC16 antibody modulators can immunospecifically associate with human DLL3 and to determine whether the same antibodies cross-react with cynomolgus, rat and/or murine DLL3. More particularly the exemplary murine antibodies were analyzed by flow cytometry using a FACSCanto II and 293 cells over-expressing murine, rat, cynomolgus or human DLL3. In some cases, exemplary murine modulators were analyzed by flow cytometry using a FACSCanto II and yeast cells displaying cynomolgus DLL3 using the methods described by Cochran et al. (J Immunol Methods. 287 (1-2):147-158 (2004).

[4] = biological target: T3, rat DLL3 over-expressed on 293 cells; experiment: flow cytometry, 293 cells over-expressing rat DLL3
Procedure: as §1

human DLL3 [5] = biological target: T1, human DLL3; experiment: BLI (ForteBio)

| Binder | Kd (human DLL3 [1]) | Kd (human DLL3 [2]) | binding result [3] | binding result [4] | Kd (human DLL3 [5]) |
| --- | --- | --- | --- | --- | --- |
| B1 | 0.5 nM | – | – | – | – |
| B2 | – | 0.9 nM | binds | – | – |
| B3 | 0.5 nM | – | binds | binds | – |
| B4 | – | – | – | – | 1 nM |
| B5 | – | 2 nM | – | – | – |
| B6 | 0.5 nM | – | binds | binds | – |
| B7 | – | 0.5 nM | binds | binds | – |
| B8 | – | 1 nM | binds | binds | – |
| B9 | 4 nM | – | binds | – | – |
| B10 | – | 0.2 nM | binds | – | – |
| B11 | – | 0.2 nM | binds | binds | – |
| B12 | – | – | binds | – | – |
